Drawing on patent publication US20180127505A1, “HUMANIZED ANTI-AXL ANTIBODIES AND THEIR CONJUGATES” (MEDIMMUNE LIMITED, priority 2015, published 2018), this text covers pI for five molecules.

To fix the notation:
B1: Ab1 (antibody, V domains shown)
VH: EVQLVESGGDLVKPGGSLKLSCAASGFTFSSYGMSWVRQTPDKRLEWVATISSGGSYTYYPDSVKGRFTISRDNAKNTLYLQMSSLKSEDTAMYYCARHPIYYTYDDTMDYWGQGTSVTVSS
VL: ENVLTQSPAIMAASPGEKVTMTCSASSSVSSGNFHWYQQKPGTSPKLWIYRTSNLASGVPARFSGSGSGTSYSLTISSMEAEDAATYYCQQWSGYPWTFGGGTKLEIK
B2: Ab2: anti-AXL antibody, VH SEQ ID NO. 2, VL SEQ ID NO. 5, constant region derived from human antibodies (antibody, V domains shown)
VH: MGFKMESQFQVFVFVFLWLSGVDGQVQLVESGGGVVQPGRSLRLSCAASGFTFSSYGMSVRQAPGKGLEWVATISSGGSYTYYPDSVKGRFTISRDNSKNTLYLQMNSLRAEDTAVYYCARHPIYYTYDDTMDYWGQGTTVTVSS
VL: MGFKMESQFQVFVFVFLWLSGVDGEIVLTQSPATLSLSPGERATLSCSASSSVSSGNFHWYQQKPGLAPRLLIYRTSNLASGIPDRFSGSGSGTDFTLTISRLEPEDFAVYYCQQWSGYPWTFGPGTKVDIK
modifications: human constant regions; Synthetic heavy chain variable region 1H12RHA; Synthetic light chain variable region 1H12RKA
notes: 5, constant region derived from human antibodies
B3: Ab5: anti-AXL antibody, VH SEQ ID NO. 3, VL SEQ ID NO. 7, constant region derived from human antibodies (antibody, V domains shown)
VH: MGFKMESQFQVFVFVFLWLSGVDGEVQLVESGGGLVQPGGSLRLSCAASGFTFSSYGMSWVRQAPGKGLEWVATISSGGSYTYYPDSVKGRFTISRDNAKNSLYLQMNSLRAEDTAVYYCARHPIYYTYDDTMDYWGQGTLVTVSS
VL: MGFKMESQFQVFVFVFLWLSGVDGEIVLTQSPGTLSLSPGERATLSCSASSSVSSGNFHWYQQKPGLAPRLLIYRTSNLASGIPARFSGSGSGTDFTLTISSLEPEDFAVYYCQQWSGYPWTFGGGTKLEIK
modifications: human constant regions; Synthetic heavy chain variable region 1H12RHB; Synthetic light chain variable region 1H12RKB
notes: 7, constant region derived from human antibodies
B4: Ab3: anti-AXL antibody, VH SEQ ID NO. 2, VL SEQ ID NO. 7, constant region derived from human antibodies (antibody, V domains shown)
VH: MGFKMESQFQVFVFVFLWLSGVDGQVQLVESGGGVVQPGRSLRLSCAASGFTFSSYGMSVRQAPGKGLEWVATISSGGSYTYYPDSVKGRFTISRDNSKNTLYLQMNSLRAEDTAVYYCARHPIYYTYDDTMDYWGQGTTVTVSS
VL: MGFKMESQFQVFVFVFLWLSGVDGEIVLTQSPGTLSLSPGERATLSCSASSSVSSGNFHWYQQKPGLAPRLLIYRTSNLASGIPARFSGSGSGTDFTLTISSLEPEDFAVYYCQQWSGYPWTFGGGTKLEIK
modifications: human constant regions; Synthetic heavy chain variable region 1H12RHA; Synthetic light chain variable region 1H12RKB
notes: as for B3
B5: Ab4: anti-AXL antibody, VH SEQ ID NO. 3, VL SEQ ID NO. 5, constant region derived from human antibodies (antibody, V domains shown)
VH: MGFKMESQFQVFVFVFLWLSGVDGEVQLVESGGGLVQPGGSLRLSCAASGFTFSSYGMSWVRQAPGKGLEWVATISSGGSYTYYPDSVKGRFTISRDNAKNSLYLQMNSLRAEDTAVYYCARHPIYYTYDDTMDYWGQGTLVTVSS
VL: MGFKMESQFQVFVFVFLWLSGVDGEIVLTQSPATLSLSPGERATLSCSASSSVSSGNFHWYQQKPGLAPRLLIYRTSNLASGIPDRFSGSGSGTDFTLTISRLEPEDFAVYYCQQWSGYPWTFGPGTKVDIK
modifications: human constant regions; Synthetic heavy chain variable region 1H12RHB; Synthetic light chain variable region 1H12RKA
notes: as for B2

The nature of this data set: Capillary isoelectric focussing (pI). It is filed as physicochemical. As to conditions: HEK293F expression product. The protocol:
Protocol 5: Capillary Isoelectric Focussing
• PA 800 plus (AB SCIEX) • Anolyte Solution: 200 mM Phosphoric Acid (Sigma-Aldrich #345 245). • 4.3M Urea (Sigma-Aldrich #U0631) in water. • Catholyte Solution: 300 mM Sodium Hydroxide. • 3M Urea (Sigma-Aldrich #U0631) in cIEF Gel (Beckman Coulter #477497). • Chemical Mobiliser: 350 mM Acetic Acid (Sigma-Aldrich #537 020). • Pharmalyte 3-10 (GE Healthcare 17-0456-01). • Cathodic Stabiliser: 500 mM Arginine (Sigma-Aldrich #A5006). • cIEF Peptide markers PI 4-10 (Beckman Coulter # A58481). • Anodic Stabiliser: 200 mM Iminodiacetic Acid (Sigma-Aldrich #220 000). • Neutral Capillary, 50 μm i.d.×45 cm, (Beckman Coulter #477 441)
• Turn on the PA800+ machine and UV lamp, allowing it to warm up 30 mins before use. • Clean the system electrodes and interface block with a damp Kimwipe. • Prepare buffer trays as shown, with 1.5 mL reagent per vial, 1 mL of water in the waste and place in the system. • 1. DDI water • 2. Anolyte • 3. Urea Solution • 4. 3M urea/cIEF Gel • 5. Chemical Mobilizer • 6. Waste • 7. Catholyte • 8. Chemical Mobilizer • 9. BI (Inlet Buffer Tray) • 10. BO (Outlet Buffer Tray) • NOTE. Each set of buffer vials is good for 6 consecutive runs or for 24 hours inside the instrument. • Insert the capillary cartridge into the system and close the front panel. • NOTE. […] When the capillary is not in use, submerge the capillary ends in vials filled with DDI water. • Prepare cIEF master mix using the table below. Dispense each reagent into a centrifuge tube, vortex 1 min, invert every 15-20 sec to ensure complete mixing and store at 2° C. to 8° C. for up to 1 day.
• Desalt and concentrate each antibody (to about 5 mg/ml) in 2M urea using Amicon Ultra 0.5 mL centrifugal filters (Sigma Z677108). • Mix 200 μL of master mix with 10 μL of protein, vortex the cIEF sample for 1 min, inverting the tube every 15-20 sec, then centrifuge at high speed to remove any air bubbles. Transfer 100 μL of sample into a micro vial. Place the micro vial into a universal plastic vial and cap it with a blue cap. Then place the sample vial in the inlet sample tray. • Run the “cIEF Conditioning—PA 800 plus.met” method to condition the column. • Rinse for 5 min at 50 psi with Chemical Mobilizer. See FIG. 2.10. • 2 Rinse for 2 min at 50 psi with DDI water. • 3 Rinse for 5 min at 50 psi with cIEF gel. • 4 Submerge both of the capillary ends in vials filled with DDI water. • Use the “cIEF Separation—PA 800 plus.met” method to create a sequence containing all protein samples and a blank. • Rinse for 3 min at 50 psi with Urea Solution. See FIG. 2.11. • Rinse for 2 min at 50 psi with DDI water. • Inject sample for 99.0 sec at 25 psi. • Water dip by submerging both capillary ends in DDI water. • Focusing step, 15 min at 25 kV under normal polarity (Time=0). • Chemical mobilization, 30 min at 30 kV under normal polarity (Time=15 min). • Stop data collection (Time=45 min). • Rinse for 2 min at 50 psi with DDI water (Time=45.10 min). • Submerged both of the capillary ends in DDI water (Time=47.20 min). • End the method (Time=47.30 min). • Put the “cIEF Shutdown—PA 800 plus.met” method at the end of the sequence to rinse the capillary and turn off the UV. • Rinse for 2 min at 50 psi with DDI water. See FIG. 2.12. • Rinse for 5 min at 50 psi with cIEF gel. • Turn off the UV lamp. • Submerge both of the capillary ends in vials filled with DDI water. • For short term storage (1 to 3 days), leave the capillary on the instrument. […]
The molecule B1 yielded a pI of 8.05.
Next, B2: 8.06; B3: 7.54; B4: 8.15.
B5: the pI is reported as 7.56.
